Results reported in the supplement of paper PMC12042874.
± gives the uncertainty stated by the source.

Assay: amyloid nucleation score (Sup35N fusion, yeast selection) (log enrichment); library NNK3; higher = more nucleation; inactive = no reads after selection
In short: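 Sup35N was fused to peptides of 20 random codons and expressed in psi-negative yeast, which were induced with 100 μM copper sulfate for 24 hours and then grown on medium lacking adenine and uracil for 7 days at 30°C. Plasmid inserts from input and output were sequenced on Illumina. The nucleation score is the DiMSum log enrichment of output over input reads, centred on the mode score of non-aggregating sequences. Sequences with under 100 input reads were left out, and random libraries had three technical output replicates.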

Substance	amyloid nucleation score
VLPRRTLACIKRTNKASETV	inactive
GSAECGCFASVYMNSMIKTV	inactive
ESPNGFFGSMDVCVLPRGSV	inactive
PDLLTRILERPGVSECFMQW	inactive
HWLFVVKMMKS	-0.093 ± 0.41
TSVCSHSEVCGWSYYTDLLS	inactive
SYWSYSSTFSILLSDSFAIS	inactive
IQYLLLLSTTARFLWKCFSL	0.37 ± 0.28
AVYLCI	inactive
KPTIDIKCFCSWVYLKVLRG	inactive
VLMMPPAFRRQSFNFRCVSQ	inactive
GQCVLCMVNVLYLWAKYTNR	inactive
LSSDNCTFPFHRLGGYKQSY	inactive
MHFRWQTFYSDN	inactive
MMAFTVFISEQDYSGIIFYE	inactive
QQDTNDSGYYGRVGMLVSYW	inactive
SRYQMGYKCFMSWHHTGHFN	inactive
VMRFYQPSTASLYGSLASPR	inactive
AYSSHFTCRPYGFNLWSLGS	inactive
KKVNDML	inactive
MNRKVVANSGDRDGIVRTSS	0.278 ± 0.43
MTVTGPQYLPWGLRHNA	inactive
SFFIALVNIFRCLN	2.56 ± 0.059

Substance	amyloid nucleation score
IWLTWTSEYCTIFGFVLPVV	inactive
WLFLVN	inactive
HLRFFLRVVGRTFIFCHS	inactive
IYPLV	inactive
SYVPSTMIRMIWIMAFHRGN	-0.024 ± 0.43
GFWINVMISKTLRYGSKAWC	inactive
PMHLTKVHVVRNFVTQSTRG	inactive
KGFFFCRTYVSSFWTKIGIF	inactive
LFYFKRFWYVLLLANLLDM	inactive
TTIYSEVLFRDHCVWQYPDR	inactive
MTRVYLMNFVLQLASTSQDS	2.54 ± 0.065
KGLMVNRELMGSWSRPGCSY	inactive
ACIVARARSSVVTCF	inactive
TYSGRIKLFLCWMLILSNGT	inactive
REHLLDHTRLYC	inactive
LYYRGLRQRLTPKLGRFRLC	inactive
SIVSRLF	inactive
FFCRKAHLMVVFFSSMRMTG	inactive
TSDVEVSRMIVCIWTSFIYQ	0.142 ± 0.52
SVSLLAFRDFALPDHTKHMT	inactive
DCKINIGVVVSLGACLSWSE	1.65 ± 0.084
GILFYTHGRKDASD	-0.348 ± 0.5
LDKCNHS	inactive

Substance	amyloid nucleation score
ISTKGITTRSLLDFKILCIT	inactive
NGVVMVKSRNVPADKSNCDG	inactive
SVDDTLSVNGSSRSCGRGCR	-1.02 ± 1.5
GGCLGICTAANLRSGNRITR	inactive
GHKVVL	inactive
HVCWVWMCEVFKAAIPSVTD	inactive
SAHEFIVDCRYESIRMFVII	inactive
IFYCLSYLGTSVVEIHCLYA	inactive
IGRVNSSGVQDGSHCYECES	0.481 ± 0.27
FNDKSMFDASKAMPFSLIAG	inactive
SKTGGFFNAVHASCPGVPLQ	inactive
IHKTFLTL	inactive
TGEQECLKQMSISGNRIFVV	inactive
GSRSARMGVVRRGRRCSECY	inactive
VKNVIRGIKAQKVGGDESLC	inactive
IDTTQVLGMNS	inactive
YMVMFAPSFSWRVSVQDKGN	3.08 ± 0.063
VSLTFVVCRALFLSFTW	inactive
VTRFTYPRILLGRNVDWLSF	inactive
MVLRVLNYFINFCATVLAGS	inactive
YVKPIGYTIFLWTGLGSP	inactive
NVYSPKRVLSGCLSPDISEF	inactive
LPLVVIFQLSTYVRQWYA	0.618 ± 0.28

Substance	amyloid nucleation score
KWVFWSIYVPFTCKFNMVNR	inactive
DGCVEELWRGRVLMKMFTHS	inactive
RDLWNGFSLGA	inactive
NIRWMFNLYACRLLRLVHF	0.44 ± 0.23
VRWSWSMFVVYNSVES	inactive
GNMKQWSIPPHIWTGQPPLM	inactive
CTSAKIICHQSMRTRCTEQD	inactive
YSLEGSRSTVWRGVCCKLAF	0.092 ± 0.24
VTQYMYTT	inactive
SVARWSENGSTKSQYSP	inactive
FTLWYVFRCVRCNKVCSGTG	0.087 ± 0.26
DLLQVLPCVLDSYGARAVRC	inactive
KKKAGLGRDWYWTVFLMVLS	inactive
RRYGYNLVTL	inactive
AGSILYGHYLDACGRHSRVI	inactive
DYVWADLFCWASGSYLDGEC	inactive
SVIMGLTGDPGVALYVVTIM	inactive
GKEKCTMNSHATLRVDVEMT	inactive
VVKNTW	inactive
LRWFAFSKSNIALGL	inactive
QDLGECN	inactive
RRDPDPTLIPG	inactive
AKWMAFSSSSFRSCFFSFKQ	-0.804 ± 1.8

Substance	amyloid nucleation score
DWVGRYSVSMWILIGRGSLW	inactive
AGPVPIT	0.723 ± 0.25
DTQSKTRRV	inactive
ACLQRVQVKIHLGFTQTSFV	0.487 ± 0.36
RIHSYAYPCQFFRLDYGGGQ	0.703 ± 0.13
CSNSGFTGENRVARLPRDGG	inactive
FQNPFTPFGLVVRYVPWLCW	inactive
YLLFIWSAYENKVGIGYITE	inactive
SEASYIIIFSGFSGFMPKLG	inactive
GCNLTYNVIGFGLYMKFRDE	1.85 ± 0.069
RVTCLFFNPRRTTNYSSSVG	1.1 ± 0.11
DIAREVCSTCLKV	inactive
GSRKYRCVDIISFGEWAVLD	inactive
YVWRDLKAMGFVYAGVCGKA	inactive
NMDSAWKCPHPYKSLTIVCF	inactive
VSIIVRYQL	1.93 ± 0.096
HLYDPVFTKVAPRSSGGYGQ	inactive
EQMWFEVCYGCRSCSEALLR	inactive
VITGLIMMLNCIGFVFRGLA	inactive
VGNNWS	inactive
RLYILAGGDFCNSCVVAYCR	0.147 ± 0.36
CTECDNSFRPLKNRDTYTAR	0.046 ± 0.27
VTKAWMCYYLLLYVWDEGRA	inactive

Substance	amyloid nucleation score
IQLIILMASTGSLYLPSDWT	0.349 ± 0.18
KRWIAHASWSSTGTWFWSGG	inactive
NWLCDRVRCCWKLNNNDMKL	-0.22 ± 0.88
NMFSGVG	inactive
YIDTW	inactive
DVRMLRLMVRELYC	inactive
PIPHML	-0.592 ± 0.75
YRYYFRSEVPEDKEDDGYLL	inactive
QSQWFGIVFMLNIMRSRDFR	0.645 ± 0.12
RVPCNETELCMFYRSGLLLL	inactive
LMFSMRTDRSMCGKDPLKRA	inactive
AGFAMYFGFVGYNFSFPWG	1.17 ± 0.19
TDLIIIRRPNFGKRGSGLGV	inactive
GRSMR	inactive
ANRYNSITE	-0.765 ± 1.5
VSLKEITKLYRSIWVFLWSS	inactive
INPLLR	0.744 ± 0.2
RAWMCIQW	0.382 ± 0.25
GPGQLYLLDM	inactive
RPNVDWKMPRFCFPSQSKTG	inactive
MLLVHNRTDIFLWIDLYNSL	inactive
YLYGGVLGVSSDEGLADGKD	inactive
KDLDGVLFGNANWKIICEL	inactive

Substance	amyloid nucleation score
WLLLLSK	inactive
TNKLIKFLDFHVRRVAVVGE	inactive
WYVFPCRDLVDMCCSGRCAV	inactive
AEASNGACLRLCWLVLVWMD	-0.206 ± 1.5
FSRKDTYFLMGIFKLNLRYL	inactive
LLQFLMFARNSMIKVVRSMV	inactive
VFRAGWPVWALDYELYSVRA	inactive
WLGKYVLVSEYIV	inactive
YDLCERLR	inactive
SPRVSMYMSSQKGLEPWESV	inactive
ILVYSVLIV	inactive
NRRWILRRLLPSVNLSE	inactive
DEFEMLLEGWVSVVGMMTRE	inactive
CPFHIIHKQSLRKMMSTWEA	inactive
TNRRN	inactive
DISKFNDSLSPSELSGLIFS	inactive
LWFCLFPPWITSCPFRLCRA	inactive
QESLDANFGLIVCYADLAED	inactive
QMYKYNPNLYFFSVAVNLVV	2.18 ± 0.073
GTDSGTRSDNV	0.328 ± 0.63
